Laboratory results as given in patent US20050181997A1.

Target: Flt3 3T3 cells (mFlt3/fms 3T3 cells and/or Stk 3T3 cells)
Assay: cell-based or functional assay

Specific Activity (u/mg) in the Flt3 3T3 assay, Superdex 75 step: 244000 u/mg
Substance: Pv-FRIL (FRIL family member from Phaseolus vulgaris, red kidney bean)
